Here are results for 7 substances from PMC7794309.

The conditions of this data set: glycan lost.
Regarding ACE2: N53Q, the “other: support of viral entry, other: percent increase over WT” value (“other: support … percent increase over WT” for short) is on record as “no change”. In the case of ACE2: N322Q, the “other: support … percent increase over WT” value is “no change”. For the substance ACE2: N103Q, the “other: support … percent increase over WT” value is “no change”. Still for that read-out and setting: then ACE2: N432Q, with “no change”. For ACE2: N546Q, the other: support of viral entry, other: percent increase over WT is 68% and the “other: viral replication” value is recorded as “no change”. For the substance ACE2: N690Q, the “other: support … percent increase over WT” value is reported as “no change”. As to ACE2: N90Q, the other: support of viral entry, other: percent increase over WT was found to be 60% and the “other: viral replication” value is given as “increases”.
